Assay results taken from US6132729 (Board of Regents, The University of Texas System, dated 2000).
Where “and” joins values, the source holds several entries; their conditions need not be identical. Equal entries are not always repeated. Where two headings read alike, the source gives them in different places. Blank lines part the entries; values can stand above or below the molecule they belong to.

Key:
[1] = target: tTF219 (truncated Tissue Factor, extracellular domain of mature human Tissue Factor) (human)
[2] = target: tTF219 (truncated Tissue Factor, extracellular domain of mature human Tissue Factor) (human); remark: listed apart in the source
H6-N'-cys-tTF219 (human) [3] = target: H6-N'-cys-tTF219 (human)
[4] = target: tTF219 (truncated Tissue Factor, extracellular domain of mature human Tissue Factor) (human); remark: listed apart in the source
[5] = target: H6-N'-cys-tTF219 dimer (human)
[6] = target: H6-tTF221-cys-C' dimer (human)
[7] = target: tTF219 (truncated Tissue Factor, extracellular domain of mature human Tissue Factor) (human); remark: listed apart in the source
H6-N'-cys-tTF219 (human) [8] = target: H6-N'-cys-tTF219 (human); remark: listed apart in the source
[9] = target: IgG-H6-N'-cys-tTF219 (human)
[10] = target: tTF219 (truncated Tissue Factor, extracellular domain of mature human Tissue Factor) (human); remark: listed apart in the source
[11] = target: T1, Factor VIIa (recombinant human) (human); assay: cell-based or functional assay
T1 chain 1: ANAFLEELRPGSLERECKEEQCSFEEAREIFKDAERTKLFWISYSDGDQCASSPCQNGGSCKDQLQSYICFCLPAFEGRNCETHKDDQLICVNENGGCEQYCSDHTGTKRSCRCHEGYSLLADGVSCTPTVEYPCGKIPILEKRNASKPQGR
T1 chain 2: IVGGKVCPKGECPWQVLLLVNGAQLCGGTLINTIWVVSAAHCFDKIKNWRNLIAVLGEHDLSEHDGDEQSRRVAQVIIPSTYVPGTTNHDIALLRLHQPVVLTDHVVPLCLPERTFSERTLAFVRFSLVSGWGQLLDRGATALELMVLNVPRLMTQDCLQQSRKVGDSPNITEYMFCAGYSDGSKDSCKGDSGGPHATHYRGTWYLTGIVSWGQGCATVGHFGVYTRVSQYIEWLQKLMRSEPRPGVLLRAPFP

conversion of Factor X to Xa (chromogenic substrate S-2765, OD 409 nm) (fold less active) (Factor VII in Proplex T): 2
Molecule: IgG-H6-N'-cys-tTF219

clotting time of mouse plasma on A20 cells [1]: 36 s
tTF concentration at which plasma coagulated in 50 seconds [2]: 3 nM
tTF concentration at which plasma coagulated in 50 seconds (H6-N'-cys-tTF219 (human) [3]): 3 nM
tTF concentration at which plasma coagulated in 50 seconds (H6-tTF219-cys-C' (human)): 3 nM
tTF concentration at which plasma coagulated in 50 seconds (H6-tTF220-cys-C' (human)): 500 pM
tTF concentration at which plasma coagulated in 50 seconds (H6-tTF221-cys-C' (human)): 500 pM
tTF concentration at which plasma coagulated in 50 seconds [4]: 500 pM
tTF concentration at which plasma coagulated in 50 seconds (tTF220-cys-C' (human)): 500 pM
tTF concentration at which plasma coagulated in 50 seconds (tTF221-cys-C' (human)): 500 pM
tTF concentration at which plasma coagulated in 50 seconds [5]: 100 pM and 200 pM
tTF concentration at which plasma coagulated in 50 seconds [6]: 4 nM
tTF concentration at which plasma coagulated in 50 seconds [7]: 100 pM and 200 pM
tTF concentration at which plasma coagulated in 50 seconds (H6-N'-cys-tTF219 (human) [8]): 1 nM
coagulation inducing activity against the unconjugated form [9]: 5 fold reduced
tTF concentration at which plasma coagulated in 50 seconds [9]: 5 nM
tTF concentration at which plasma coagulated in 50 seconds [10]: 1 nM
Molecule: B21-2/10H10 bispecific antibody

coagulation-inducing potency of cell-associated tTF219 with added Factor VIIa [11]: ~100 fold
B1: tTF219 (truncated Tissue Factor, extracellular domain of mature human Tissue Factor) (receptor)
chain: GSGTTNTVAAYNLTWKSTNFKTILEWEPKPVNQVYTVQISTKSGDWKSKCFYTTDTECDLTDEIVKDVKQTYLARVFSYPAGNVESTGSAGEPLYENSPEFTPYLETNLGQPTIQSFEQVGTKVNVTVEDERTLVRRNNTFLSLRDVFGKDLIYTLYYWKSSSSGKKTAKTNTNEFLIDVDKGENYCFSVQAVIPSRTVNRKSTDSPVECMGQEKGEFRE
